Measured values: US11549134B2, “Modified amadoriase and method for producing the same, agent for improving surfactant resistance of amadoriase and composition for measuring HbA1c using the same” (Kikkoman Corporation, priority 2013, dated 2023)

Tests used:
[1] = Surfactant resistance (residual activity) of purified enzymes with various surfactants; type: biochemical; settings: 20 mM potassium phosphate pH 7.0, purified enzyme
Protocol: An amadoriase crude enzyme solution or an amadoriase purified sample is diluted with a 30 mM MES/21 mM Tris buffer solution (pH6.5) so as to have a concentration of about 1.0 U/ml. To this, CTAC (for example, manufactured by Tokyo Kasei Kogyo Co., Ltd.) is added so as to obtain a final concentration 0.01% (w/v) or 0.04%. The resultant mixture is heated at 30° C. for 5 minutes. After heating, the mixture is diluted double with a 10 mM phosphate buffer (pH7.0) containing 0.15% BSA to prepare a sample. The enzyme activities of the sample before and after a surfactant treatment are measured by the method described in Section B above. The ratio of activity of the sample after the surfactant treatment relative to the activity of the sample before the surfactant treatment (regarded as 100), i.e., the residual activity (%), is obtained. In this manner, surfactant resistance is evaluated.
Using various surfactants, the stability of the purified enzymes CFP-T7, CFP-D2, and CFP-D7 obtained as described above was evaluated. The surfactant resistance of the modified amadoriases was evaluated in accordance with a measurement method for surfactant resistance according to Example 1 although under surfactant treatment conditions in which the amadoriases were each diluted in a 20 mM potassium phosphate buffer solution (pH 7.0) and mixed with any of various concentrations of the surfactants. In this respect, it was confirmed that when the warmed sample was again measured for activity 30 minutes after 2-fold dilution in a BSA solution, there was no change in the activity value.

CFP-T7 = experiment: Surfactant resistance of amadoriase during addition of each stabilizer (CFP-T7); type: biochemical, genus Coniochaeta; settings: Stabilizer None, 500 mM HEPES (pH 7.0), 0.01% CTAC
Protocol: In the above surfactant resistance measuring method, various stabilizers are added and the residual activity of an amadoriase is measured in order to evaluate the effect of the stabilizers. […] The concentration sufficient to provide a buffer capacity to a solution refers to the concentration at which pH is maintained within a predetermined range (for example pH5 to 10, pH6 to 8) without having pH change due to other reagents added to the solution. A concentration insufficient to provide a buffer capacity to a solution refers to the concentration at which pH changes by addition of other reagents to the solution and pH falls outside a particular range. These concentrations vary depending upon the type and amount of other reagents to be added to a solution; however, a person skilled in the art can appropriately determine the concentration by conventional methods. Other conditions and procedure can be the same as in the above surfactant resistance measuring method.
It was studied whether or not the addition of any of various stabilizers enhanced the surfactant resistance of an amadoriase. Phosphoric acid, a tricarboxylic acid (e.g., citric acid), a dicarboxylic acid (e.g., malic acid, maleic acid, citraconic acid, malonic acid, glutaric acid, or tartaric acid), a monpcarboxylic acid (e.g., acetic acid), MES, MOPS, MOPSO, or ammonium sulfate was used as a stabilizer. As a Comparative Example, CHES was used. To prevent change in pH when adding the stabilizer, 500 mM HEPES (pH 7.0) was used as a buffer solution; CFP-T7 purified as described above was used as a sample; the final concentration of CTAC was set at 0.01%; and any of the stabilizers was further added to evaluate the surfactant resistance of CFP-T7 according to the measurement method for surfactant resistance in Example 1. Using a 500 mM HEPES (pH 7.0) buffering agent and CFP-D2 purified as described above as a sample, any of the stabilizers was further added, and the surfactant resistance of CFP-D2 was evaluated according to the measurement method for surfactant resistance in Example 1 although under more harsh surfactant treatment conditions in which the final concentration of CTAC was set at 0.08% and the treatment temperature at 37° C.

B1: CFP-T7: amadoriase derived from the genus Coniochaeta, SEQ ID NO: 1; triple variant with mutations at positions 272, 302 and 388 (protein, listed as Coniochaeta sp.)
chain: MTSNRADTRVIVVGGGGTIGSSTALHLVRSGYAPANITVLDTFEIPSAQSAGHDLNKIMGIRLRNKVDLQMSLEARQMWKEDELFQPFFHNTGRMDCEHTPEGIEDLKKQYQALHDAGAGLEKTHAWLDNEDEILSKMPLLQRDQIQGWKAIWSQDGGWLAAAKAINAIGQFLKERGVKFGFGGAGSFKQPLFDDEGTTCIGVETADGTKYYADKVVLAAGAWSPTLVDLEDQCCSKAWVYAHIQLTPEEAAEYKGVPVVYNGEFGFFFEPDEFGVIKVCDEFPGFSRFKEHQPYGAPSPKRISVPRSHAKHPTDTYPDASEVSIKKAIATFLPRFQDKELFNRALCWCTDTADAALLMCEHPKWKNFILATGDSGHSFKILPNVGKYVVELIEGRLPEEMAYQWRWRPGGDALKSRRAAPPKDLADMPGWKHDPKL
For B1, the “Residual Activity(%)” value ([1]; Benzylcetyldimethyl ammonium Chloride (BCDAC) 0.04%) was 1.4%, the “Residual Activity(%)” value ([1]; Benzyldodecyldimethyl ammonium Bromide (BDDAB) 0.10%) was 1.4% and the “Residual Activity(%)” value ([1]; Benzyltetradecyldimethyl ammonium Chloride (BDTAC) 0.04%) was 0.7%. For the same molecule, the “Residual Activity(%)” value ([1]; Dodecylpyridinium Chloride (1-DPC) 0.16%) was 3.4%, the “Residual Activity(%)” value ([1]; Dodecyltrimethylammonium Bromide (DTAB) 0.30%) was 12.2% and the “Residual Activity(%)” value ([1]; Hexadecylpyridinium Bromide (1-CPB) 0.04%) was 0.7%. For the same molecule, the “Residual Activity(%)” value ([1]; Hexadecylpyridinium Chloride (1-CPC) 0.04%) was 1.4%, the “Residual Activity(%)” value ([1]; Hexadecyltrimethylammonium Chloride (CTAC) 0.04%) was 2.3% and the “Residual Activity(%)” value ([1]; N-Cetyl-4-methylpyridinium Chloride (4Me-1-CPC) 0.04%) was 1.5%. The “Residual Activity(%)” value ([1]; Octadecyltrimethylammonium Bromide (STAB) 0.01%) was 59.7%, the “Residual Activity(%)” value ([1]; Octadecyltrimethylammonium Chloride (STAC) 0.02%) was 49.3% and the “Residual Activity(%)” value ([1]; Octyltrimethylammonium Bromide (OTAB) 0.80%) was 87.7%. The “Residual Activity(%)” value ([1]; Octyltrimethylammonium Chloride (OTAC) 1.20%) was 94.1%, the “Residual Activity(%)” value ([1]; Tetradecyltrimethylammonium Bromide (TTAB) 0.04%) was 31.7% and the “Residual Activity(%)” value ([1]; Tetradecyltrimethylammonium Chloride (TTAC) 0.04%) was 4.1%. The “Residual Activity(%)” value ([1]; Tributylhexadecyl phosphonium Bromide (TBCPB) 0.04%) was 3.1%, the “CFP-T7 Residual Activity (%)” value (CFP-T7; Table 9-1) was 4.7% and the “CFP-T7 Residual Activity (%)” value (CFP-T7; Table 9-2) was 3.1%.
